In assay [1] the target is T1, recombinant MHC class II protein of the HLA DRB1 1001 genotype (human).
T1 construct: construct not described
As to the kind of experiment: in vitro binding assay.

Assay [2] deals with T2, recombinant MHC class II protein of the HLA DRB1 0401 genotype (human).
T2 construct: construct not described; also called HLA-DR0401
Put plainly: in vitro binding assay.

The target of assay [3] is T3, recombinant MHC class II protein of the HLA DRB1 0404 genotype (human).
T3 construct: construct not described
As to the kind of experiment: in vitro binding assay.

Assay [4] addresses T4, recombinant MHC class II protein of the HLA DRB1 0101 genotype (human).
T4 construct: construct not described
Put plainly: in vitro binding assay.

Assay [5] concerns the target T5, recombinant MHC class II protein of the HLA DRB1 0408 genotype (human).
T5 construct: construct not described
As to the kind of experiment: in vitro binding assay.

The target in assay [6] is T6, recombinant MHC class II protein of the HLA DRB1 0405 genotype (human).
T6 construct: construct not described
Put plainly: in vitro binding assay.

The target in assay [7] is T2, recombinant MHC class II protein of the …. As to the kind of experiment: in vitro binding assay. The source holds these as a separate data set.
The target in assay [8] is T3, recombinant MHC class II protein of the …. Put plainly: in vitro binding assay. This is another data set of the same source.
The target in assay [9] is T2, recombinant MHC class II protein of the …. Put plainly: in vitro binding assay. This is another data set of the same source.
Assay [10] addresses T5, recombinant MHC class II protein of the …. Put plainly: in vitro binding assay. This is another data set of the same source.
In assay [11] the target is T6, recombinant MHC class II protein of the …. As to the kind of experiment: in vitro binding assay. This is another data set of the same source.
Assay [12] has as its target T4, recombinant MHC class II protein of the …. Put plainly: in vitro binding assay. The source holds these as a separate data set.
Assay [13] concerns the target T1, recombinant MHC class II protein of the …. Put plainly: in vitro binding assay. This is another data set of the same source.
The target of assay [14] is T3, recombinant MHC class II protein of the …. As to the kind of experiment: in vitro binding assay. This is another data set of the same source.
Assay [15] addresses T4, recombinant MHC class II protein of the …. Put plainly: in vitro binding assay. The source holds these as a separate data set.
Assay [16] has as its target T2, recombinant MHC class II protein of the …. Put plainly: binds MHC in vitro.

Results on 31 molecules are retold here after patent publication US20200407424A1 (FRAUNHOFER GESELLSCHAFT ZUR F RDERUNG DER ANGEWANDTEN …, published 2020).

Like-named read-outs stand apart in the source and are kept apart here. Square brackets hold non-standard residues; d marks the D form. Ends that are not written are not given here. Cit = NC(=O)NCCC[C@H](N)C(=O)O

APGN[Cit]GFPGQDGLAG [citrullinated type II collagen peptide ref no 357]: the binding result in assay [1] is on record as “binds”.
For the molecule PGLQGMPGE[Cit]GAAGI [citrullinated type II collagen peptide ref no 386], the binding result in assay [2] and in [3] was “binds” in each case.
PKGANGDPG[Cit]PGEPG [citrullinated type II collagen peptide ref no 362]: in assay [1], the binding result was “binds”.
Turning to GEPGIAGFKGEQGPK [type II collagen peptide ref no 137], the binding result in [2], in assay [4] and in [3] was “binds” each time.
For the molecule QGP[Cit]GLPGTPGTDGP [citrullinated type II collagen peptide ref no 384], the binding result in assay [5] and in assay [1] was “binds” each time.
With LAGQRGIVGLPGQRG [type II collagen peptide ref no 241], the binding result in assay [2] is “no binding”; in [6], “binds”; in [3], “binds”.
As to GIVGLPGQRGERGFP [corresponding non-citrullinated peptide of type II collagen peptide 411], the binding result in [7] and in [8] was “binds” in each case.
Regarding GHRGFTGLQGLPGPP [type II collagen peptide ref no 272], in [6], the binding result was “binds”.
Take PQGPRGDKGEAGEPG [type II collagen peptide ref no 268]: the binding result in assay [1] is recorded as “binds”.
As to PSGFQGLPGPPGPPG [type II collagen peptide ref no 178], the binding result in [6] is given as “binds”.
As for GDRGETGAVGAPGAP [type II collagen peptide ref no 257], the binding result in assay [3] is “binds”.
For the molecule KGVPLY[Cit]HIADLAGN [citrullinated a-enolase peptide ref no 299], the binding result was “binds” in [9]; “binds” in assay [10]; “binds” in assay [11]; “no binding” in assay [12]; “no binding” in assay [13]; “no binding” in [14].
Consider PGLQGMPGERGAAGI [type II collagen peptide ref no 195], for which the binding result in assay [3] is given as “binds”.
In the case of TSKGLF[Cit]AAVPSGAS [citrullinated a-enolase peptide ref no 291], the binding result in [7] is given as “binds”; in assay [8], “binds”; in assay [10] it was “no binding”; in assay [11] it was “binds”; in assay [12] it was “binds”; in [13], “binds”.
In the case of RYMGKGVSKAVEHIN [corresponding non-citrullinated peptide of a-enolase peptide 297], the binding result in assay [7] is “no binding”; in [15], “binds”.
Turning to [Cit]GPPGPQGA[Cit]GFPGT [citrullinated type II collagen peptide ref no 332], the binding result in assay [2], in assay [6] and in [3] was “binds” each time.
With PQGARGFPGTPGLPG [type II collagen peptide ref no 100], in assay [3], the binding result is on record as “binds”.
Turning to KRIAKAVNEKSCNCL [a-enolase peptide ref no 66], the binding result in [10] is “binds”; in assay [11], “binds”; in [12], “binds”; in assay [13], “no binding”; in assay [14] it was “binds”; in [16], “binds”.
Regarding PGLQGMPGERGAAGI [corresponding non-citrullinated peptide of type II collagen peptide 386], the binding result in [8] is given as “binds”.

B1: a-enolase peptide ref no 6 (peptide)
peptide: TSKGLFRAAVPSGAS
notes: also called corresponding non-citrinullated peptide of 291
For the molecule B1, the binding result in assay [8] is reported as “binds”; in [9] it was “no binding”; in assay [10], “no binding”; in assay [11], “binds”; in [12], “binds”; in assay [13], “no binding”.
Regarding GIVGLPGQ[Cit]GE[Cit]GFP [citrullinated type II collagen peptide ref no 411], the binding result in [2], in assay [6] and in assay [3] was “binds” in each case.
With ANFREAMRIGAEVYH [a-enolase peptide ref no 36], the binding result in assay [9] is reported as “no binding”; in assay [10], “no binding”; in assay [11], “binds”; in [12], “binds”; in assay [13], “no binding”; in assay [14], “no binding”.
As to LLKVNQIGSVTESLQ [a-enolase peptide ref no 69], the binding result in assay [9] was “no binding”; in [10], “no binding”; in [11] it was “binds”; in assay [12] it was “no binding”; in [13], “no binding”; in assay [14], “no binding”.
Regarding GDRGEAGAQGPMGPS [type II collagen peptide ref no 263], the binding result in assay [1] is listed as “binds”.
GPPGATGFPGAAGRV [type II collagen peptide ref no 224]: in assay [3], the binding result is reported as “binds”.
Regarding MSILKIHAREIFDSR [corresponding non-citrullinated peptide of a-enolase peptide 287], the binding result is “no binding” in assay [7], “binds” in assay [15] and “binds” in [8].
Turning to KEGLELLKTAIGKAG [a-enolase peptide ref no 45], the binding result in assay [9] is reported as “binds”; in assay [10], “binds”; in assay [11] it was “binds”; in assay [12] it was “binds”; in assay [13], “no binding”; in assay [14], “binds”.
Take KRIAKAVNEKSCNCL [corresponding non-citrullinated peptide of a-enolase peptide 313]: the binding result in assay [7] and in assay [15] was “binds” each time.
Turning to VMGFPGPKGANGEPG [type II collagen peptide ref no 166], the binding result in [3] is listed as “binds”.
Take GIVGLPGQRGERGFP [type II collagen peptide ref no 242]: the binding result in assay [2], in assay [6], in [4] and in [3] was “binds” each time.
On to AGFKGEQGPKGEPGP [type II collagen peptide ref no 138], for which the binding result in [2] and in assay [4] was “binds” throughout.
